Data: article PMC11921379, “TK2268 encodes the major aminotransferase involved in the conversion from oxaloacetic acid to aspartic acid in Thermococcus kodakarensis” (Applied and Environmental Microbiology, 2025)

Experiments:
[1] = molecular target: T1, TK2268p (TK2268 protein) (Thermococcus kodakarensis, UniProt Q5JHU0); assay: initial velocity, HPLC after o-phthalaldehyde derivatization; substrate inhibition fit; assay type: biochemical; conditions: substrate inhibition constant, second site (second substrate binding to enzyme-substrate complex), 20 µM PLP, 50 mM HEPES pH 7.5, 80°C
T1 construct: full-length, C-terminal His6-tag, overexpressed homologously in T. kodakarensis, His GraviTrap and gel filtration
Excerpt: (§1) initial velocity, HPLC after o-phthalaldehyde derivatization; substrate inhibition fit on TK2268p (TK2268 protein)

[2] = substrate: O=C(O)CCC(=O)C(=O)O; assay: as above; assay type: biochemical, Thermococcus kodakarensis; conditions: amino acceptor, 10 mM Asp, 20 µM PLP, 50 mM HEPES pH 7.5, 80°C, substrate inhibition model, Ks1 described as dissociation constant of first substrate
Excerpt: as §1

[3] = substrate: O=C(O)CC(=O)C(=O)O; assay: purified protein; assay type: biochemical, Thermococcus kodakarensis; conditions: amino acceptor, 4 mM glutamate, 20 µM PLP, 50 mM HEPES pH 7.5, 80°C, substrate inhibition model, Ks1 described as dissociation constant of first substrate
[4] = substrate: N[C@@H](CCC(=O)O)C(=O)O; assay: initial velocity, HPLC after o-phthalaldehyde derivatization; assay type: biochemical, Thermococcus kodakarensis; conditions: amino donor, 10 mM oxaloacetate, 20 µM PLP, 50 mM HEPES pH 7.5, 80°C
Excerpt: initial velocity, HPLC after o-phthalaldehyde derivatization on TK2268p (TK2268 protein)

[5] = substrate: N[C@@H](CC(=O)O)C(=O)O; assay: purified protein; conditions: amino donor, 10 mM 2-oxoglutarate, 20 µM PLP, 50 mM HEPES pH 7.5, 80°C

O=C(O)CCC(=O)C(=O)O [2-OG, 2-oxoglutarate]
Km ([1]; 10 mM Asp): 5.9 ± 1.6 mM

O=C(O)CC(=O)C(=O)O [OAA, oxaloacetate]
Km ([1]; 4 mM glutamate): 13.2 ± 1.2 mM

B1: TK2268p (TK2268 protein) (Thermococcus kodakarensis KOD1) (protein)
chain: MRYKKRKYFMAGRINILQRSKIRELFEKASKMENVISLGIGEPDFDTPEVIKEAAKRAIDEGYTHYTPNAGIPEFREAIAEYYKEFYNVDVDMNNIIVTAGAYEATYLAFESILEQGDDVIIPDPAFVCYVEDAKIAEAGIIRIPLREENKFRIDPDELLEAITKRTRMIVMNYPNNPTGAIMKKDVAKAIADIAQDYNIYILSDEPYEHFLYEGARHHPMIKYAPDNTILANSFSKTFAMTGWRLGFAIAPEQVIRDMIKLHAYVIGNVTSFIQIAGITALRDKRSWEAVERMRQVYDERRKLVLKYLNDMPHITPFRPKGAFYIWAKIDPELDMTSEDFAEWLLENAGVVVIPGTAFGRQGEGWIRISYATEKEKLIEAMERMKEALSKL
notes: full-length, C-terminal His6-tag, overexpressed homologously in T. kodakarensis, His GraviTrap and gel filtration
Km [2]: 38.8 ± 9.6 mM | Vmax [2]: 1040 ± 230 µmol/min/mg | kcat [2]: 781 ± 244 s⁻¹ | kcat/Km [2]: 20100 M⁻¹ s⁻¹ | Km [3]: 1.3 ± 0.1 mM | Vmax [3]: 360 µmol/min/mg | kcat [3]: 270 ± 16 s⁻¹ | kcat/Km [3]: 208000 M⁻¹ s⁻¹ | Km [4]: 3.4 ± 0.3 mM | Vmax [4]: 443 µmol/min/mg | kcat [4]: 333 ± 12 s⁻¹ | kcat/Km [4]: 97800 M⁻¹ s⁻¹ | Km [5]: 10.3 ± 0.5 mM | Vmax [5]: 232 µmol/min/mg | kcat [5]: 175 s⁻¹ | kcat/Km [5]: 17000 M⁻¹ s⁻¹
